T1: CADM1 peptide structure expressed on cells (CADM1 peptide, Myc tag, hinge, transmembrane domain, GFP) (human)
T1 sequence: DSRAGEEGSIRAVDH


What was measured:
[1] = target: CADM1 on small cell lung cancer cell lines H146 and H69 (human) (UniProt Q9BY67); test: flow cytometry, 1 ug scFv on 5x10^5 H69 cells, PE anti-HA
[2] = target: CADM1 on small cell lung cancer cell lines H146 and H69 (human) (UniProt Q9BY67); test: flow cytometry, 1 ug scFv on 5x10^5 H146 cells, PE anti-HA
[3] = target: T1, CADM1 peptide structure expressed on cells (CADM1 peptide, Myc tag, hinge, transmembrane domain, GFP) (human); test: flow cytometry, 1 ug scFv on 5x10^5 cells with the CADM1 peptide structure, PE anti-HA

결합력 % [1]	결합력 % [2]	결합력 % [3]	Binder
29.1%	10.2%	16.3%	4A2 (scFv, V domains shown) VH: AVTLDESGGGLQTPGRALSLACKGSGFTFSSYAMNWVRQAPGKGLEFVAQITSSGRYTYYGTAVKGRATISRDNGQSTVRLQLNNLRAEDSGTYYCAKDAAAGYYDGATAGDIDAWGHGTEVIVSS VL: LTQPSSVSANPGETVKITCSGGYNRYGWYQQKSPGSAPVTVIYSNNQRPSNIPSRFSGSKSGSTATLTITGVQAEDEAVYYCGSYDSSDGYAGIFGAGTTLTVL
61.1%	9.7%	14.7%	4A8 (scFv, V domains shown) VH: AVTLDESGGGLQTPGGGLSLVCKASGFTFSSYAMNWVRQAPGKGLEFVAQITSSGRYTYYGTAVKGRATISRDNGQSTVRLQLNNLRAEDSGTYYCAKDAAAGYYDGATAGDIDAWGHGTEVIVSS VL: LTQPSSVSANLGGTVKITCSGGSGSNHYGWYQQKSPGSAPVTVIYSNNKRPSNIPSRFSGSKFGSTATLTITGVQADDEAVYYCGGYDSSAGYIGPFGAGTTLTVL
61.8%	33.6%	16%	RB11 (scFv, V domains shown) VH: AVTLDESGGGLQTPGGGLSLVCKGSGFTFSSYAMNWVRQAPGKGLEFVAQITSSGRYTYYGTAVKGRATISRDNGQSTVRLQLNNLRAEDSGTYYCAKDAAAGYYDGATAGDIDAWGHGTEVIVSS VL: LTQPSSVSANPGGTVKITCSGGSGSYGWFQQKAPGSAPVTLIYANTNRPSDIPSRFSGSKSGSTATLTITGVQVEDEAVYYCGSTDSSYVSIFGAGTTLTVL
12%	4.5%	15.3%	RH6 (scFv, V domains shown) VH: AVTLDESGGGLQTPGGGLSLVCKGSGFTFSSYAMNWVRQAPGKGLEFVAQITSSGRYTYYGTAVKGRATISRDNGQSTVRLQLNNLRAEDSGTYYCAKDAAAGYYDGATAGDIDAWGHGTEVIVSS VL: VTQPSSVSANPGESVKITCSGGSYSYGWYQQKSPGSAPVTVIYSNNQRPSNIPSRFSGSTSGSTSTLTITGVQADDEAVYFCGTFDSSTNAAFGAGTTLTVL

— patent publication KR20220167207A
